Measured values: the Immune Epitope Database (IEDB)

Columns and labels:
[1] = biological target: HLA-A*02:01; experiment: IEDB peptide-MHC binding, purified MHC/competitive/radioactivity; filed as Kd, often an IC50 or EC50 that approximates it; ≥ and ≤ were set here for values at or beyond the usual limits of such assays
[2] = biological target: HLA-A*02:03; experiment: as above
[3] = biological target: HLA-A*02:17; experiment: as above
[4] = biological target: HLA-A*02:06; experiment: as above
[5] = biological target: HLA-A*02:02; experiment: as above; conditions: source organism: Vaccinia virus WR
[6] = biological target: HLA-B*15:03; experiment: as above; conditions: source organism: Vaccinia virus WR
[7] = biological target: HLA-B*08:01; experiment: as above
[8] = biological target: HLA-A*03:01; experiment: IEDB peptide-MHC binding, purified MHC/competitive/fluorescence; ≥ and ≤ were set here for values at or beyond the usual limits of such assays
[9] = biological target: HLA-A*11:01; experiment: as above
[10] = biological target: HLA-B*15:01; experiment: as above
[11] = biological target: HLA-A*02:01; experiment: as above
[12] = biological target: HLA-A*24:02; experiment: as above
[13] = biological target: HLA-B*57:01; experiment: IEDB peptide-MHC binding, purified MHC/direct/fluorescence; filed as Kd, often an IC50 or EC50 that approximates it; ≥ and ≤ were set here for values at or beyond the usual limits of such assays
[14] = biological target: HLA-B*58:01; experiment: as above
[15] = biological target: HLA-A*30:01; experiment: IEDB peptide-MHC binding, purified MHC/competitive/radioactivity; filed as Kd, often an IC50 or EC50 that approximates it; ≥ and ≤ were set here for values at or beyond the usual limits of such assays; conditions: source organism: Vaccinia virus WR
[16] = biological target: HLA-A*32:01; experiment: as above; conditions: source organism: Vaccinia virus WR
[17] = biological target: HLA-B*15:01; experiment: as above; conditions: source organism: Vaccinia virus WR
[18] = biological target: HLA-A*01:01; experiment: IEDB peptide-MHC binding, purified MHC/direct/fluorescence; filed as Kd, often an IC50 or EC50 that approximates it; ≥ and ≤ were set here for values at or beyond the usual limits of such assays
[19] = biological target: HLA-A*02:01; experiment: as above; conditions: source organism: West Nile virus
[20] = biological target: HLA-A*03:01; experiment: as above
[21] = biological target: HLA-A*11:01; experiment: as above; conditions: source organism: West Nile virus
[22] = biological target: HLA-A*29:02; experiment: as above
[23] = biological target: HLA-A*31:01; experiment: as above
[24] = biological target: HLA-A*69:01; experiment: as above; conditions: source organism: West Nile virus
[25] = biological target: HLA-B*07:02; experiment: as above
[26] = biological target: HLA-B*08:01; experiment: as above; conditions: source organism: West Nile virus
[27] = biological target: HLA-B*18:01; experiment: as above; conditions: source organism: West Nile virus
[28] = biological target: HLA-B*27:05; experiment: as above; conditions: source organism: West Nile virus
[29] = biological target: HLA-B*40:01; experiment: as above; conditions: source organism: West Nile virus
[30] = biological target: HLA-B*46:01; experiment: as above; conditions: source organism: West Nile virus
[31] = biological target: HLA-B*39:01; experiment: as above; conditions: source organism: Mycobacterium tuberculosis
[32] = biological target: HLA-B*44:02; experiment: as above; conditions: source organism: Mycobacterium tuberculosis
[33] = source organism: Dengue virus 4 Philippines/H241/1956
[34] = source organism: Dengue virus 1 Nauru/West Pac/1974
[35] = source organism: Vaccinia virus WR
[36] = source organism: Dengue virus 3 China/80-2/1980
[37] = source organism: Dengue virus 1 Brazil/97-11/1997
[38] = source organism: Sudan ebolavirus
[39] = source organism: Zaire ebolavirus
[40] = source organism: Camelpox virus M-96
[41] = source organism: Vaccinia virus
[42] = source organism: West Nile virus
[43] = source organism: Mycobacterium tuberculosis
[44] = source organism: Dengue virus 4 Dominica/814669/1981
[45] = source organism: Dengue virus 1 Singapore/S275/1990

ALLGAMTAGI
Kd [1, 33]: 25.3 nM
Kd [2, 33]: 58.8 nM
Kd [3, 33]: 126 nM

AMLDVDLHPA
Kd [1, 34]: 5.66 nM
Kd [2, 34]: 2.03 nM
Kd [4, 34]: 7.08 nM
Kd [3, 34]: 1100 nM

CAVNTPVSM
Kd [5]: 6270 nM
Kd [2, 35]: 15700 nM
Kd [4, 35]: 1520 nM
Kd [6]: 43 nM

CLMMMLPATL
Kd [2, 36]: 6.85 nM
Kd [3, 36]: 253 nM
Kd [7, 36]: 60.5 nM

CMSNSRLSF
Kd [6]: 1.03 nM

ELMRRGDLPV
Kd [2, 37]: 139 nM
Kd [3, 33]: 19900 nM

FLGEDGCWYG
Kd [1, 33]: 52.4 nM
Kd [3, 33]: 1050 nM

GFRSGVPPK
IC50 [8, 38]: 3790 nM
IC50 [9, 38]: 3210 nM
IC50 [10, 38]: ≥ 92300 nM

GLAMGIMML
Kd [1, 34]: 77.6 nM
Kd [2, 37]: 0.67 nM
Kd [3, 34]: 15000 nM

GLFPQLSAI
IC50 [11, 39]: 431 nM
IC50 [12, 39]: 8030 nM
IC50 [10, 39]: 10300 nM

HLIMFEQYF
Kd [6]: 45.5 nM

ILHSDYQLF
Kd [6]: 2.43 nM

ILTILTIIGL
Kd [1, 33]: 18.5 nM
Kd [3, 33]: 456 nM

ISASDMQKF
Kd [6]: 812 nM

KINQIIHDF
IC50 [11, 38]: ≥ 78600 nM
IC50 [12, 38]: 969 nM
IC50 [10, 38]: 27200 nM

KTINALVYF
Kd [13, 40]: 784 nM
Kd [14, 40]: 45.3 nM
Kd [15]: 131 nM
Kd [16]: 8.73 nM
Kd [7, 35]: 17100 nM
Kd [17]: 0.366 nM
Kd [6]: 22.7 nM

LAVLFINSI
Kd [6]: 191 nM

LFLDIECHF
Kd [15]: 19 nM
Kd [16]: 3440 nM
Kd [7, 35]: 1120 nM
Kd [17]: 547 nM
Kd [6]: 47.3 nM

LLFGIKCIK
IC50 [11, 41]: 914 nM
IC50 [8, 41]: 770 nM
IC50 [9, 41]: 734 nM
IC50 [10, 41]: ≥ 229000 nM

LMTMNIVNF
Kd [16]: 6530 nM
Kd [6]: 16.5 nM

LQKLAQHSI
Kd [6]: 243 nM

LVKTESWIL
Kd [18, 42]: ≥ 20000 nM
Kd [19]: ≥ 20000 nM
Kd [20, 42]: ≥ 20000 nM
Kd [21]: ≥ 20000 nM
Kd [22, 42]: ≥ 20000 nM
Kd [23, 42]: ≥ 20000 nM
Kd [24]: ≥ 20000 nM
Kd [25, 42]: ≥ 20000 nM
Kd [26]: 1890 nM
Kd [27]: ≥ 20000 nM
Kd [28]: ≥ 20000 nM
Kd [29]: ≥ 20000 nM
Kd [30]: ≥ 20000 nM
Kd [13, 42]: ≥ 20000 nM
Kd [14, 42]: ≥ 20000 nM

QQFYWPVMN
IC50 [11, 39]: 8000 nM
IC50 [10, 39]: 34000 nM

SQAFNTPAL
Kd [18, 43]: ≥ 20000 nM
Kd [20, 43]: ≥ 20000 nM
Kd [22, 43]: ≥ 20000 nM
Kd [23, 43]: ≥ 20000 nM
Kd [25, 43]: ≥ 20000 nM
Kd [31]: 30.8 nM
Kd [32]: ≥ 20000 nM
Kd [13, 43]: ≥ 20000 nM
Kd [14, 43]: ≥ 20000 nM

SQIITLTAF
Kd [15]: 16400 nM
Kd [16]: 1200 nM
Kd [7, 35]: ≥ 40600 nM
Kd [17]: 1.01 nM
Kd [6]: 0.791 nM

TLLCLIPTV
Kd [4, 44]: 3.44 nM
Kd [3, 44]: 151 nM

VLFVVTLIPL
Kd [1, 33]: 57 nM
Kd [3, 33]: 3110 nM

VLMLVAHYAI
Kd [1, 45]: 97.4 nM
Kd [3, 45]: 1830 nM

WQSVGHMMV
IC50 [11, 39]: 1540 nM
IC50 [10, 39]: 4760 nM
